Results as given in PMC4005678.

Target: Klf4 ZnF1-3 DNA-binding domain (mouse) (UniProt Q60793)
Experiment: fluorescence polarization
Details: FP: 20 mM Tris-HCl pH 7.5, 150 mM NaCl, 5% (v/v) glycerol, 0.5 mM TCEP, ~22 C, probe 10 nM (WT) or 1 nM (E446A)

Klf4 ZnF1-3 DNA-binding domain (mouse), sequence (Q60793 396-483): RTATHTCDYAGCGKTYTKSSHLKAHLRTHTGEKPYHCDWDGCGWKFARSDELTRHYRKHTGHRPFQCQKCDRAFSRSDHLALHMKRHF

“GAGGCGTGGC / TTGCCACGCCTC [Klf4 site 5fC/M]” gave a binding signal (fold weaker than M/M) (5fC at position 5 of strand 1, 5mC at position 7 of strand 2) of 3.
“GAGGCGTGGC / TTGCCACGCCTC [Klf4 site C/M]” gave a binding signal (fold weaker than M/M) (repeat series, C at position 5 of strand 1, 5mC at position 7 of strand 2) of 1.5 and a binding signal (fold Kd vs M/M) (text: difference only ~40%, C at position 5 of strand 1, 5mC at position 7 of strand 2) of 1.4.
For “GAGGCGTGGC / TTGCCACGCCTC [Klf4 site C/C]”, the binding signal (fold weaker than M/M) was 1.5.
With “GAGGCGTGGC / TTGCCACGCCTC [Klf4 site 5hmC/M]” the binding signal (fold weaker than M/M) (5hmC at position 5 of strand 1, 5mC at position 7 of strand 2) was 2.
Sequence “GAGGCGTGGC / TTGCCACGCCTC [Klf4 site 5caC/M]” has a binding signal (fold weaker than M/M) (5caC at position 5 of strand 1, 5mC at position 7 of strand 2) of 6.
